Consider three molecules from paper PMC3135484 (Molecular Biology of the Cell, 2011).

The labels stand for the following.
T1: Vps18 (individual HOPS subunit, TAP-purified) (yeast (S. cerevisiae), UniProt P27801 1-918)
T1 sequence: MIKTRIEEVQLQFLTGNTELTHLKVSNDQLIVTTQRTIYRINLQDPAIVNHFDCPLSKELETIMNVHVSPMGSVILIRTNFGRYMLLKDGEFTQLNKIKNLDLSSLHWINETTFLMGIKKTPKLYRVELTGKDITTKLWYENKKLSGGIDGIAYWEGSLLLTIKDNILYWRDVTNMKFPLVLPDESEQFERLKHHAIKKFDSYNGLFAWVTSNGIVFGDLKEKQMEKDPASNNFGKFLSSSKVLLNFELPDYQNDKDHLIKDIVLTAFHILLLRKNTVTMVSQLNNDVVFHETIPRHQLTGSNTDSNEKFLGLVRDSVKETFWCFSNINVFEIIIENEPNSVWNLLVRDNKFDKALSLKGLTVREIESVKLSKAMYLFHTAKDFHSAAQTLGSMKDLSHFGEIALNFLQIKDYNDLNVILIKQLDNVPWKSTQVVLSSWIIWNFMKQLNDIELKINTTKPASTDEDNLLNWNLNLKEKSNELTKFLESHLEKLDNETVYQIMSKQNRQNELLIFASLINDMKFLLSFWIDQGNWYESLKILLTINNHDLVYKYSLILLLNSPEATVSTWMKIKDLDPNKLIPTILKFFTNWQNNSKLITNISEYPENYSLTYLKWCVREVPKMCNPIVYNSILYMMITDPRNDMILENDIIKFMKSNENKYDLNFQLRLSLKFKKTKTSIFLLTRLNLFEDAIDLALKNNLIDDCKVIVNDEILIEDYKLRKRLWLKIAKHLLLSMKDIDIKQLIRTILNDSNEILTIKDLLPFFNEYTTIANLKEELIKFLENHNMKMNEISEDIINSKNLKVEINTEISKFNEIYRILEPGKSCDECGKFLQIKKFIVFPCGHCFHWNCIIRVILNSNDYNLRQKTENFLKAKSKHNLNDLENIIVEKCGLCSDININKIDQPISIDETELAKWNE

T2: Vps33 (individual HOPS subunit, Sec1/Munc18 protein, TAP-purified) (yeast (S. cerevisiae), UniProt P20795 1-691)
T2 sequence: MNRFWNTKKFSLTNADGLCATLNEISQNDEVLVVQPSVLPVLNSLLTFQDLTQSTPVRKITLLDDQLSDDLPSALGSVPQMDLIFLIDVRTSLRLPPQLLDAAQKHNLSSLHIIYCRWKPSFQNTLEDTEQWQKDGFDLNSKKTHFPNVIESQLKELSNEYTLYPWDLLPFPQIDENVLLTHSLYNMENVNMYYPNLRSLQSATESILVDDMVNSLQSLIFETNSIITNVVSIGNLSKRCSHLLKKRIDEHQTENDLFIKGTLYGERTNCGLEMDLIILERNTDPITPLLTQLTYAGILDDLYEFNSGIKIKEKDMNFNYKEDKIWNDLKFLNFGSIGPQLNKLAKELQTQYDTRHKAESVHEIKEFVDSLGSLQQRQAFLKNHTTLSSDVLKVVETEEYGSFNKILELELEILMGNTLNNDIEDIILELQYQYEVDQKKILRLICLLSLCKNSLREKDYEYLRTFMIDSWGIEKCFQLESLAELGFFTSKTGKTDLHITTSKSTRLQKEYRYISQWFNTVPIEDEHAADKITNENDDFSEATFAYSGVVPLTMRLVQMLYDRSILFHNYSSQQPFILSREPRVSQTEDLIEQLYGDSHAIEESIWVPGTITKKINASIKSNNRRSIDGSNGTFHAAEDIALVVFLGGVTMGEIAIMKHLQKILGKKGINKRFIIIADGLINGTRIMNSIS

T3: Vps16 (individual HOPS subunit, TAP-purified) (yeast (S. cerevisiae), UniProt Q03308 1-798)
T3 sequence: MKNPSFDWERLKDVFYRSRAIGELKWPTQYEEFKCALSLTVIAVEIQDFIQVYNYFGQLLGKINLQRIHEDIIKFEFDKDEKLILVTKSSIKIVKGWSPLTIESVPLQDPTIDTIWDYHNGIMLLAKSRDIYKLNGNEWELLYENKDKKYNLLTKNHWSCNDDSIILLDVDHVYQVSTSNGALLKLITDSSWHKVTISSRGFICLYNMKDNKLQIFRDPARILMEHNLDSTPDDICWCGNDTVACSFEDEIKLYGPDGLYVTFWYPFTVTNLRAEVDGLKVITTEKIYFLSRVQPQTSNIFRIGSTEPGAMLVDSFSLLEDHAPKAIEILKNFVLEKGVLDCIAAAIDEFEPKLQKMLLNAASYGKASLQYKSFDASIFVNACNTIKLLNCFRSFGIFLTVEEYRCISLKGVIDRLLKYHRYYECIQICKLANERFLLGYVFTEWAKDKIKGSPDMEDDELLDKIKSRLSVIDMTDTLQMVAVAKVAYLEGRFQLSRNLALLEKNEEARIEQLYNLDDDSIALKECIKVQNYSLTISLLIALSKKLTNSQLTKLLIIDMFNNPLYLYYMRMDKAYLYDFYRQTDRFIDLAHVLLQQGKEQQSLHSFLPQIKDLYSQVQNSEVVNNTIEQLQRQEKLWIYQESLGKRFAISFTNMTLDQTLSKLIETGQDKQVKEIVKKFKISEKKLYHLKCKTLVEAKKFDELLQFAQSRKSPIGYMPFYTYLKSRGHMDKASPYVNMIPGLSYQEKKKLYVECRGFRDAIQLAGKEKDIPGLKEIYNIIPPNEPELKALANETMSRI

T4: His-tagged Vam3 (1-264, ΔTMD) (S. cerevisiae, UniProt Q12241 1-264)
T4 sequence: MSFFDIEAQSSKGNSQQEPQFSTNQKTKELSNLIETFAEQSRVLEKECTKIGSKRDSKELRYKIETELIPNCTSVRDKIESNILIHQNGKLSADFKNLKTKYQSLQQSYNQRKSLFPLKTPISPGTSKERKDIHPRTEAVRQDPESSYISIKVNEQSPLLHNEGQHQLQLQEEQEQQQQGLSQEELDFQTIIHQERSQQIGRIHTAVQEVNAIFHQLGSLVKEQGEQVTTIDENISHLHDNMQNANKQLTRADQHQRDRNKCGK

T5: His-tagged Ykt6 (1-200) (S. cerevisiae, UniProt P36015 1-200)
T5 sequence: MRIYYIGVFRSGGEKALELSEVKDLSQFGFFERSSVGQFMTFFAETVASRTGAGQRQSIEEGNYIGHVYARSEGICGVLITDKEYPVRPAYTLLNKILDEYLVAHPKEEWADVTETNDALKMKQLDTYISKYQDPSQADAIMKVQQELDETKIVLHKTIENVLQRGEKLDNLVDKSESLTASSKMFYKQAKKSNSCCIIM

B1: minimal Q-SNARE complex (GST-Vam7 SD, Vam3ΔN and Vti1) (complex)
chain 1: PSTEVTRRAALLRSLLKECDDIGTANIAQDRGRLLGVATSDNSSTTEVQGRTNNDLQQGQMQMVRDQEQELVALHRIIQAQRGLALEMNEELQTQNELLTALEDDVDNTGRRLQIANKKARHFNNSA
chain 2: ESSYISIKVNEQSPLLHNEGQHQLQLQEEQEQQQQGLSQEELDFQTIIHQERSQQIGRIHTAVQEVNAIFHQLGSLVKEQGEQVTTIDENISHLHDNMQNANKQLTRADQHQRDRNKCGK
chain 3: MSSLLISYESDFKTTLEQAKASLAEAPSQPLSQRNTTLKHVEQQQDELFDLLDQMDVEVNNSIGDASERATYKAKLREWKKTIQSDIKRPLQSLVDSGDRDRLFGDLNASNIDDDQRQQLLSNHAILQKSGDRLKDASRIANETEGIGSQIMMDLRSQRETLENARQTLFQADSYVDKSIKTLKTMTRR
B2: GST-tagged Vam7 SNARE domain (190-316) (domain or fragment)
chain: B1 chain 1
B3: His-tagged Vam3ΔN (145-264, lacking the Habc domain and the TMD) (domain or fragment)
chain: B1 chain 2

What all share (experiment): pull-down
The target of experiment [1] is HOPS (homotypic fusion and protein sorting) complex (yeast (S. cerevisiae), UniProt P38959;Q07468;P20795;P12868;Q03308;P27801).
Experiment [2] has as its target T1, Vps18 (individual HOPS subunit, …).
For experiment [3], the target named is T2, Vps33 (individual HOPS subunit, …).
The target in experiment [4] is T3, Vps16 (individual HOPS subunit, …).
Experiment [5] deals with T4, His-tagged Vam3 (1-264, ΔTMD).
For experiment [6], the target named is His-tagged Vti1 (1-189, ΔTMD) (S. cerevisiae, UniProt Q04338 1-189).
The target in the next experiment is T5, His-tagged Ykt6 (1-200).
Experiment [7] has as its target B2.

Chain of HOPS (homotypic fusion and protein sorting) complex (P38959 whole entry, chain 1 of 3, the tested form may be a part): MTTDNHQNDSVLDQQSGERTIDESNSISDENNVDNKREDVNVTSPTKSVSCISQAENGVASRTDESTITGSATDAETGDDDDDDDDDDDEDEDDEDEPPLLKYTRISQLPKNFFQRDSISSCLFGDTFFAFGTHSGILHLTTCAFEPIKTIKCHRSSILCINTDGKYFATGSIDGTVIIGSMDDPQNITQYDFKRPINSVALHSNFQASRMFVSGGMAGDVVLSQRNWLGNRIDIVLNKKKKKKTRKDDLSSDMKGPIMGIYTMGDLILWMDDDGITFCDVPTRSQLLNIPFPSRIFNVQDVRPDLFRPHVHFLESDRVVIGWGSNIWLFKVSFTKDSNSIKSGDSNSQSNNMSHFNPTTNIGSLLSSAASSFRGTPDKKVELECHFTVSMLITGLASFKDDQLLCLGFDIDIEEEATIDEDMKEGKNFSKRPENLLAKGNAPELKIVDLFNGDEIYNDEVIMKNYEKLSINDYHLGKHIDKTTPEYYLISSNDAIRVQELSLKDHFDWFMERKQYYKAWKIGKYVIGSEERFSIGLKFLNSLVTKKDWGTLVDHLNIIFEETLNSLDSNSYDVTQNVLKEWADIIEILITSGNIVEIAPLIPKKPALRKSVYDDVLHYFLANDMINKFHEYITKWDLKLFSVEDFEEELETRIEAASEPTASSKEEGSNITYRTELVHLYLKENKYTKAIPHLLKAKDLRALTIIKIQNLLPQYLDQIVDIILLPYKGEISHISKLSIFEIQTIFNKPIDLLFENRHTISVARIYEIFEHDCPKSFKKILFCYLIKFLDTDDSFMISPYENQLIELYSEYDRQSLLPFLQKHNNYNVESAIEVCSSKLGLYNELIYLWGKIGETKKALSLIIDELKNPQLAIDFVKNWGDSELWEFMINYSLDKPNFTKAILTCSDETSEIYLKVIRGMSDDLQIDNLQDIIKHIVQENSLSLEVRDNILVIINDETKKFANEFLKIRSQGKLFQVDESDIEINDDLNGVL
Chain of HOPS (homotypic fusion and protein sorting) complex (Q07468 whole entry, chain 2 of 3, the tested form may be a part): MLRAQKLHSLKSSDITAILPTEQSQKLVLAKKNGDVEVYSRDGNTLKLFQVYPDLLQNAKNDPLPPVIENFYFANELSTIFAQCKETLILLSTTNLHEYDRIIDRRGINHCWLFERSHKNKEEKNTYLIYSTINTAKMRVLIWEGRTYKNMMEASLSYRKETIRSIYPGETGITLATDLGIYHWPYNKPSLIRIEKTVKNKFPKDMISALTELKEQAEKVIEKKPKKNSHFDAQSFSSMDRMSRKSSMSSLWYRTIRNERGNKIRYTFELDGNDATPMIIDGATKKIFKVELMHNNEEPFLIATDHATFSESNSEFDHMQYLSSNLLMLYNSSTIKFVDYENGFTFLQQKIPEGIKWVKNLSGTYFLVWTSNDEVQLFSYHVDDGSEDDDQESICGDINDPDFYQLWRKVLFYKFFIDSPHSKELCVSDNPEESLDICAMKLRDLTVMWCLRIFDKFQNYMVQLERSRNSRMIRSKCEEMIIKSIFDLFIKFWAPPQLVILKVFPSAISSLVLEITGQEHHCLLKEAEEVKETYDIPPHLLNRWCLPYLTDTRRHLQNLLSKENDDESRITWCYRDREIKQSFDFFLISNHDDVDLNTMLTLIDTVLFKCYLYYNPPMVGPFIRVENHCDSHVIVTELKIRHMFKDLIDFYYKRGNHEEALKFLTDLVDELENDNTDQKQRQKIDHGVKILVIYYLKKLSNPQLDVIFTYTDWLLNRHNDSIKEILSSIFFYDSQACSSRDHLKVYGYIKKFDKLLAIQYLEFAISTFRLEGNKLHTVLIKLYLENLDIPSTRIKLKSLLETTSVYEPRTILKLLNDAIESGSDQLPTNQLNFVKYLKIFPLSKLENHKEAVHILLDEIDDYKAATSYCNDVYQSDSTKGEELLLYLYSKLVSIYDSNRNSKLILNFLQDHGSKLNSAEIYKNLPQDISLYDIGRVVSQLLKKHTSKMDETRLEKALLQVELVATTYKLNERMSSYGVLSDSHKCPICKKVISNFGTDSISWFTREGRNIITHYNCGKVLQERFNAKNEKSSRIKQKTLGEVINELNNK
Chain of HOPS (homotypic fusion and protein sorting) complex (P12868 whole entry, chain 4 of 3, the tested form may be a part): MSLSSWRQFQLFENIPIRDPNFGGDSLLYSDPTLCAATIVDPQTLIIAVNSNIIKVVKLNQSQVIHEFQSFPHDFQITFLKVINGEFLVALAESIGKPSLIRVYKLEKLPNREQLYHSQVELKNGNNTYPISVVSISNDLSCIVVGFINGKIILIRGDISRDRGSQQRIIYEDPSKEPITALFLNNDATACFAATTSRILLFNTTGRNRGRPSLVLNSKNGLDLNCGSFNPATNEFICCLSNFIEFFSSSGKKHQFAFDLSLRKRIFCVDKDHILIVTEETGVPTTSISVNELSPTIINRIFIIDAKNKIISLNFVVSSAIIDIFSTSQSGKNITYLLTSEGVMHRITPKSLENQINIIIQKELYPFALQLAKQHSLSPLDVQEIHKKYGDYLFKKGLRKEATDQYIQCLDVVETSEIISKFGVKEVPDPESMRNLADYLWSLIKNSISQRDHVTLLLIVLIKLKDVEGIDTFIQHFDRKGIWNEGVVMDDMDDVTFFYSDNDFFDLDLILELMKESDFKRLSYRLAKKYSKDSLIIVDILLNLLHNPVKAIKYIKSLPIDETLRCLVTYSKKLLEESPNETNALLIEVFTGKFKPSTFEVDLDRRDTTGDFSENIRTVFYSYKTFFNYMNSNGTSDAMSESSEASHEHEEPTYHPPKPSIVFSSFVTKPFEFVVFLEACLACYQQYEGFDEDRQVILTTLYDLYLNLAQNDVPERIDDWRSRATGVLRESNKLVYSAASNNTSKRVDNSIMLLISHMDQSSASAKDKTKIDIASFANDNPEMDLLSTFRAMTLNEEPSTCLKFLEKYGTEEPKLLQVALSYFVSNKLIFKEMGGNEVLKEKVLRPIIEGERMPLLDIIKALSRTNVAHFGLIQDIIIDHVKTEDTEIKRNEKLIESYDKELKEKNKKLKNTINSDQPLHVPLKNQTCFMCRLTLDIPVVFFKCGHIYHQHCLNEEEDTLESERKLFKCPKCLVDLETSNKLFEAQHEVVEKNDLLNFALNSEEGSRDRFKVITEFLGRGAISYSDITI

B1: the binding result in experiment [1], in experiment [2], in experiment [3] and in experiment [4] was “binds” each time.

In the case of B2, the binding result (in experiment [5]; in experiment [6]; with His-tagged Ykt6 (1-200)) was “binds” each time.

For B3, the binding result in experiment [7] is recorded as “binds”.
